Test results taken from the supplement of paper PMC6757056.
± gives the standard deviation of the averaged measurements.

B1: library; a variant is named by its letters at N, in order (parent)
chain: GCUGUCACCGGUGCUUGGUACGUUAUAUUCAGCCGGUCUGAUGAGUCUNNNNNNAGACGAAACAGC

What was measured:
(6R,S)-folinic acid [1] = variants of: B1; assay: normalized RNA/DNA level without ligand (relative to sTRSVctl = 100) (log10 (% of sTRSVctl)); HEK293T overexpressing SLC46A1; higher = less ribozyme self-cleavage, higher mRNA level; settings: without (6R,S)-folinic acid; ligand present: no
How it was run: (§1)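 RNA level was computed as RNA reads over DNA reads divided by a spiked-in non-cleaving sequence or by the top sequences, then scaled and log-transformed. Scaling was ×100 with log10, the top group was 25 sequences, and the threshold was ≥100 DNA reads. The reads came from HEK293T cells transfected at 4 µg per 6-well well with ribozyme switch library plasmids (mCherry, or eGFP in some ligand experiments). Total RNA was extracted with EDTA 72 h after transfection, with any ligand added 1 h before it.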

(6R,S)-folinic acid [2] = variants of: B1; assay: normalized RNA/DNA level with ligand (relative to sTRSVctl = 100) (log10 (% of sTRSVctl)); HEK293T overexpressing SLC46A1; ligand concentration (+) RNA-Seq: 6 mM; higher = less ribozyme self-cleavage, higher mRNA level; settings: with (6R,S)-folinic acid; ligand present: yes
How it was run: as §1

| Variant | normalized RNA/DNA level without ligand (log10) ((6R,S)-folinic acid [1]) | normalized RNA/DNA level with ligand (log10) ((6R,S)-folinic acid [2]) |
| --- | --- | --- |
| CAAUAC | 1.984 ± 0.017 | 1.97 ± 0.038 |
| CAAUAU | 1.95 ± 0.025 | 2 ± 0.033 |
| GAAUUC | 2.01 ± 0.0081 | 2.02 ± 0.024 |
| GAAUUU | 2.029 ± 0.01 | 2.01 ± 0.022 |
| CAAUGC | 2.03 ± 0.027 | 2.023 ± 0.02 |
| CAAUGG | 1.94 ± 0.0094 | 1.983 ± 0.0083 |
| CAAUGU | 1.981 ± 0.0089 | 1.98 ± 0.044 |
| UACCUA | 2.0242 ± 0.0004 | 2.069 ± 0.019 |
| UACCUU | 2.02 ± 0.0067 | 2.046 ± 0.014 |
| UACCAG | 1.862 ± 0.011 | 1.96 ± 0.025 |
| UACCAU | 1.9686 ± 0.001 | 2 ± 0.038 |
| UACCAA | 1.966 ± 0.0066 | 1.99 ± 0.02 |
| UACACC | 2.025 ± 0.011 | 1.99 ± 0.048 |
| UACACU | 2.017 ± 0.0061 | 2.03 ± 0.037 |
| AAAUGU | 1.9431 ± 0.0016 | 1.99 ± 0.028 |
| CACCCA | 2.011 ± 0.017 | 2.01 ± 0.059 |
| CACCCG | 2.018 ± 0.0098 | 2.01 ± 0.031 |
| CACCCU | 2.059 ± 0.0058 | 2.04 ± 0.012 |
| CACCCC | 2.031 ± 0.019 | 2.01 ± 0.022 |
| CAAGGU | 1.976 ± 0.0082 | 1.97 ± 0.024 |
| CAAGGC | 1.993 ± 0.019 | 1.99 ± 0.035 |
| CAAGAU | 1.97 ± 0.009 | 2.01 ± 0.025 |
| CAAGAC | 2.026 ± 0.0013 | 2.03 ± 0.038 |

| Variant | normalized RNA/DNA level without ligand (log10) ((6R,S)-folinic acid [1]) | normalized RNA/DNA level with ligand (log10) ((6R,S)-folinic acid [2]) |
| --- | --- | --- |
| CAAACG | 2.02 ± 0.0085 | 2.03 ± 0.036 |
| GAAGGG | 1.87 ± 0.00046 | 2.03 ± 0.043 |
| GAAGGU | 1.974 ± 0.0097 | 2.02 ± 0.043 |
| GAAGGA | 1.952 ± 0.0097 | 2.009 ± 0.014 |
| AACACC | 2.046 ± 0.015 | 2.05 ± 0.086 |
| AACACU | 2 ± 0.032 | 2 ± 0.043 |
| AACACA | 1.99 ± 0.011 | 2.01 ± 0.037 |
| CACGGG | 1.91 ± 0.0032 | 1.992 ± 0.0038 |
| CACGGC | 2.046 ± 0.014 | 2.03 ± 0.026 |
| CACGGA | 1.99 ± 0.038 | 2.02 ± 0.029 |
| CACGGU | 1.954 ± 0.0088 | 1.95 ± 0.04 |
| GACAUC | 2.05 ± 0.034 | 2.04 ± 0.082 |
| GACAUG | 1.925 ± 0.0021 | 1.994 ± 0.009 |
| UAAUUA | 1.991 ± 0.0035 | 2.01 ± 0.048 |
| UAAUUC | 2.01 ± 0.027 | 2.02 ± 0.031 |
| UAAUUU | 1.979 ± 0.0057 | 2.01 ± 0.032 |
| GAACAC | 1.998 ± 0.018 | 2.014 ± 0.0037 |
| GAACAU | 1.9736 ± 0.0012 | 2.01 ± 0.035 |
| AACAUU | 2.03 ± 0.019 | 2.02 ± 0.022 |
| UAAGAC | 1.984 ± 0.00031 | 2.01 ± 0.034 |
| UAAGAU | 1.9446 ± 0.0012 | 2.01 ± 0.024 |
| UACGGC | 2.05 ± 0.0049 | 2.05 ± 0.063 |
| CAAUUU | 1.995 ± 0.0068 | 2 ± 0.032 |

| Variant | normalized RNA/DNA level without ligand (log10) ((6R,S)-folinic acid [1]) | normalized RNA/DNA level with ligand (log10) ((6R,S)-folinic acid [2]) |
| --- | --- | --- |
| CAAUUG | 2.014 ± 0.0049 | 2.06 ± 0.023 |
| GAAAGU | 1.9823 ± 0.00097 | 2.02 ± 0.034 |
| GAAAGC | 1.966 ± 0.0051 | 2.0058 ± 0.0012 |
| GAACGU | 1.988 ± 0.0095 | 2 ± 0.027 |
| CAAAGC | 1.992 ± 0.015 | 2 ± 0.04 |
| CAAAGA | 1.988 ± 0.015 | 1.99 ± 0.034 |
| CAAAGG | 1.909 ± 0.0072 | 2 ± 0.021 |
| CAAAGU | 1.983 ± 0.013 | 2.01 ± 0.025 |
| CAACCU | 2.051 ± 0.012 | 2.05 ± 0.035 |
| CAACCA | 2.032 ± 0.015 | 2.019 ± 0.013 |
| CAACCC | 2.073 ± 0.0092 | 2.03 ± 0.079 |
| CAACCG | 2.0386 ± 0.00089 | 2.04 ± 0.02 |
| AAAGUA | 1.937 ± 0.014 | 2 ± 0.037 |
| AAAGUU | 1.972 ± 0.0027 | 2.01 ± 0.016 |
| UACAAC | 2.0034 ± 0.0014 | 2.02 ± 0.034 |
| GAACCG | 2.018 ± 0.017 | 2.03 ± 0.038 |
| GAACCC | 2.02 ± 0.018 | 2.017 ± 0.0044 |
| GAACCA | 2.0209 ± 0.0019 | 2.01 ± 0.037 |
| GAACUG | 1.971 ± 0.0088 | 1.99 ± 0.028 |
| GAACUA | 1.9884 ± 0.0016 | 2 ± 0.055 |
| GAACUC | 2.044 ± 0.0052 | 2.028 ± 0.012 |
| GAACUU | 2.002 ± 0.013 | 1.98 ± 0.028 |
| UAACGU | 1.95 ± 0.028 | 2.003 ± 0.013 |

| Variant | normalized RNA/DNA level without ligand (log10) ((6R,S)-folinic acid [1]) | normalized RNA/DNA level with ligand (log10) ((6R,S)-folinic acid [2]) |
| --- | --- | --- |
| UAAGCC | 2 ± 0.0023 | 2.03 ± 0.038 |
| GACCGG | 2.08 ± 0.053 | 2.0517 ± 0.0019 |
| GACCGA | 2.09 ± 0.0085 | 2.033 ± 0.011 |
| GACCGU | 2.03 ± 0.029 | 2.01 ± 0.023 |
| GACCGC | 2.0652 ± 0.00035 | 2.018 ± 0.011 |
| AAAUUA | 1.97 ± 0.012 | 1.99 ± 0.03 |
| UAAAUU | 1.984 ± 0.011 | 2.017 ± 0.02 |
| UAAAUA | 1.952 ± 0.014 | 2 ± 0.034 |
| UAAAUC | 2.06 ± 0.0029 | 2.06 ± 0.045 |
| UAAUCG | 1.795 ± 0.012 | 1.988 ± 0.016 |
| UAAUCU | 2.021 ± 0.012 | 2.046 ± 0.0022 |
| UAAUCC | 2.001 ± 0.0044 | 2.03 ± 0.03 |
| UAAUCA | 1.945 ± 0.013 | 1.97 ± 0.04 |
| UACAUC | 2.0657 ± 0.0019 | 2.04 ± 0.032 |
| UACAUU | 2.005 ± 0.0053 | 1.99 ± 0.042 |
| GAAGCC | 2.022 ± 0.0083 | 2.03 ± 0.047 |
| AAAAUG | 1.935 ± 0.013 | 2.02 ± 0.024 |
| AAAAUC | 2.051 ± 0.0098 | 2.01 ± 0.023 |
| GAAGUC | 2.05 ± 0.021 | 2.04 ± 0.026 |
| CACAGA | 2.03 ± 0.015 | 2.01 ± 0.022 |
| CACAGC | 1.978 ± 0.0044 | 1.96 ± 0.021 |
| CACAGG | 1.95 ± 0.026 | 2 ± 0.048 |
| CACAGU | 1.999 ± 0.017 | 2 ± 0.077 |

| Variant | normalized RNA/DNA level without ligand (log10) ((6R,S)-folinic acid [1]) | normalized RNA/DNA level with ligand (log10) ((6R,S)-folinic acid [2]) |
| --- | --- | --- |
| UACCCA | 2.0351 ± 0.0019 | 2.02 ± 0.034 |
| UACCCC | 2.03 ± 0.024 | 2.022 ± 0.017 |
| UACCCU | 2.032 ± 0.0098 | 2 ± 0.041 |
| GACGGC | 2.03 ± 0.016 | 2.04 ± 0.072 |
| CACACC | 2.061 ± 0.0083 | 2 ± 0.073 |
| CACACG | 2.0281 ± 0.00028 | 2.04 ± 0.036 |
| UAAGUA | 1.896 ± 0.0077 | 1.98 ± 0.034 |
| GACACC | 2.026 ± 0.0065 | 1.98 ± 0.038 |
| GACACG | 1.971 ± 0.019 | 1.98 ± 0.034 |
| GACACU | 2.032 ± 0.015 | 2.046 ± 0.018 |
| CAAGCC | 2.099 ± 0.01 | 2.03 ± 0.046 |
| CAAGCG | 2.057 ± 0.015 | 2.062 ± 0.0093 |
| UAAGGU | 1.844 ± 0.0031 | 1.967 ± 0.018 |
| UAAGGC | 1.98 ± 0.023 | 2.01 ± 0.043 |
| UACGCG | 1.79 ± 0.03 | 1.98 ± 0.058 |
| UACGCA | 1.992 ± 0.013 | 2.03 ± 0.037 |
| UACGCC | 2.053 ± 0.0091 | 2.07 ± 0.022 |
| UACGCU | 2.0313 ± 0.00036 | 2.043 ± 0.0085 |
| AACCGU | 1.9935 ± 0.00042 | 2 ± 0.032 |
| AACCGA | 1.998 ± 0.014 | 1.99 ± 0.051 |
| AACCGC | 2.04 ± 0.029 | 2.013 ± 0.019 |
| CACGAC | 2.02 ± 0.023 | 2.02 ± 0.032 |
| CACGAA | 1.956 ± 0.0025 | 1.94 ± 0.039 |
